{
  "source": "patent US20030147861A1",
  "about": "“Compounds and methods for the modulation of immune responses” (Genesis Research and Development Corporation Limited, priority 2001, published 2003)",
  "molecules": {"B1": {"name": "GV-35: recombinant M. vaccae antigen, amino acid sequence SEQ ID NO: 45 (protein, listed as Mycobacterium vaccae)", "chain": "MKANHSGCYKSAGPIWSHPSPLCSPALAPSHAGLDNELSLGVHGQGPEHLTIQQWDTFLNGVFPLDRNRLTREWFHSGKATYVVAGEGADEFEGTLELGYHVGFPWSLGVGINFSYTTPNITYDGYGLNFADPLLGFGDSIVTPPLFPGVSITADLGNGPGIQEVATFSVDVAGPGGSVVVSNAHGTVTGAAGGVLLRPFARLISSTGDSVTTYGAPLKHELTTSRWRPPGVNRGPLHAGREAPEVRSKWPTAANACARDSSSLTQGLVVVECHPVTPPHRPRRDGRGSGVWAPALGTYGGDRRRDVTSVAVFAGNPDGPAESPHPSSEPGGSKEF"}, "B2": {"name": "GV-45: recombinant M. vaccae antigen, amino acid sequence SEQ ID NO: 52 (protein, listed as Mycobacterium vaccae)", "chain": "MNKAELIDVLTEKLGSDRRQATAAVENVVDTIVRAVHKGESVTITGFGVFEQRRRAARVARNPRTGETVKVKPTSVPAFRPGAQFKAVVSGAQKLPAEGPAVKRGVTATSTARKAAKKAPAKKAAAKKAAPAKKAPAKKAATKAAPAKKATAAKKAAPAKKATAAKKAAPAKKAPAKKAATKAAPAKKAPAKKAATKAAPAKKAPAAKKAPAKKAPAKRGGRK"}, "B3": {"name": "GV-33: recombinant M. vaccae antigen, amino acid sequence SEQ ID NO: 44 (protein, listed as Mycobacterium vaccae)", "chain": "MVRAALRYGFGTASLLAGGFVLRALQGTPAALGATPGEVAPVARRSPNYRDGKFVNLEPPSGITMDRDLQRMLLRDLANAASQGKPPGPIPLAEPPKGDPTPAPAAASWYGHSSVLIEVDGYRVLADPVWSNRCSPSRAVGPQRMHDVPVPLEALPAVDAVVISHDHYDHLDIDTIVALAHTQRAPFVVPLGIGAHLRKWGVPEARIVELDWHEAHRIDDLTLVCTPARHFSGRLFSRDSTLWASWVVTGSSHKAFFGGDTGYTKSFAEIGDEYGPFDLTLLPIGAYHPAFADIHMNPEEAVRAHLDLTEVDNSLMVPIHWATFRLAPHPWSEPAERLLTAADAERVRLTVPIPGQRVDPESTFDPWWRF"}},
  "key": {"[1]": {"test_system": "MAP kinase signaling pathway in THP-1 cells (IL-10 production)", "experiment": "AVAC-induced IL-10 production by THP-1 cells pre-treated with MAP kinase inhibitors (ELISA)", "type": "cell-based, human", "details": "inhibitor pre-treatment 120 minutes; 25 μg/mL AVAC, 24 hours", "description": "The involvement of the MAP kinase signaling pathway in the production of IL-10 by THP-1 cells in response to AVAC was assessed as follows.\nPrior to culture with AVAC, 50 μL of THP-1 cells in cRPMI-10 were pre-treated in duplicate microplate wells with 50 μL of serially diluted PD98059 (Calbiochem cat. no. 51300, a selective inhibitor of MAP kinase), SB202190 (Calbiochem cat. no. 559388, an inhibitor of p38 MAP kinase and p38β MAP kinase), SB203580 (Calbiochem cat. no. 559389, a highly specific inhibitor of p38 MAP kinase), with SB202474 (Calbiochem cat. no. 559387, a negative control for MAP kinase inhibition studies), or with no added chemicals. MAP kinase inhibitors and control were used at a final concentration of 100 μg/mL, 20 μg/mL, 4.0 μg/mL, 0.8 μg/mL, 0.16 μg/mL, or […]. Pretreatment of cells with MAP kinase inhibitors and control was for 120 minutes in a water-jacketed, humidified incubator at 37° C. supplied with 5% CO2 in air.\nFollowing pretreatment, the cells were washed once in cPRMI-10 to remove inhibitor or control chemicals. […] IL-10 content in the microculture supernatants was determined by sandwich ELISA using a commercially available set (eBioscience cat. no. 88-7106-77,) according to the manufacturer's recommendations. […]"}, "[2]": {"test_system": "CD69 on αβT cells, γδT cells and NK cells", "type": "cell-based, human"}, "[3]": {"test_system": "CD40, CD80 and CD86 on dendritic cells", "type": "cell-based, human"}, "[4]": {"test_system": "popliteal lymph node cells", "experiment": "Proliferation of lymph node cells from GV protein-immunized mice", "type": "cell-based, female BALB/cByJ mice", "details": "lymph node cells of mice immunized with 10 μg of the same GV protein in IFA", "description": "(§1) The immunogenicity of Mycobacterium vaccae recombinant proteins (referred to herein as GV recombinant proteins) was tested by injecting female BALB/cByJ mice in each hind foot-pad with 10 μg of recombinant GV proteins emulsified in incomplete Freund's adjuvant (IFA). Control mice received phosphate buffered saline in IFA. The draining popliteal lymph nodes were excised 10 days later and the cells obtained therefrom were stimulated with the immunizing GV protein and assayed for proliferation by measuring the uptake of tritiated thymidine. The amount of interferon gamma (IFNγ) produced and secreted by these cells into the culture supernatants was assayed by standard enzyme-linked immunoassay."}, "[5]": {"test_system": "IL-1β, TNF-α, IL-12 and IFN-γ production in PBMC", "experiment": "Cytokine production in PBMC from normal donors (ELISA)", "type": "cell-based, human"}, "[6]": {"test_system": "CD40, CD80 and CD86 on B cells", "experiment": "CD40, CD80 and CD86 expression on B cells (3 color flow cytometry)", "type": "cell-based, human", "details": "20 ug/ml, 48 hours, vs non-stimulated cells", "text": "(§2) Stimulated cells were harvested and analyzed for up-regulation of CD40, CD80 and CD86 using 3 color flow cytometric analysis. Tables 16, 17 and 18 show the fold increase in mean fluorescence intensity from control (non-stimulated cells) for dendritic cells, monocytes, and B cells, respectively."}, "[7]": {"test_system": "CD40, CD80 and CD86 on monocytes", "experiment": "CD40, CD80 and CD86 expression on monocytes (3 color flow cytometry)", "type": "cell-based, human", "details": "20 ug/ml, 48 hours, vs non-stimulated cells", "text": "as §2"}, "[8]": {"test_system": "IFNγ production by lymph node cells", "experiment": "IFNγ production by lymph node cells from GV protein-immunized mice (enzyme-linked immunoassay)", "type": "cell-based, female BALB/cByJ mice", "details": "lymph node cells of mice immunized with the same GV protein", "description": "as §1"}, "[9]": {"details": "Dose of GV protein used in vitro 0.08 μg/ml"}, "[10]": {"details": "Dose of GV protein used in vitro 2 μg/ml"}, "[11]": {"details": "Dose of GV protein used in vitro 50 μg/ml"}, "[12]": {"details": "dendritic cells, 20 ug/ml, 48 hours, vs non-stimulated cells"}},
  "data": [
    {"molecule": "Oc1ccc(-c2nc(-c3ccncc3)c(-c3ccc(F)cc3)[nH]2)cc1", "note": "[SB202190]", "values": [
      {"measurement": "suppression of AVAC-induced production of IL-10 by THP-1 cells", "setting": "[1]", "value": "substantially suppressed in a dose-dependent manner"}
    ]},
    {"molecule": "C[S+]([O-])c1ccc(-c2nc(-c3ccncc3)c(-c3ccc(F)cc3)[nH]2)cc1", "note": "(stereo not drawn) [SB203580]", "values": [
      {"measurement": "suppression of AVAC-induced production of IL-10 by THP-1 cells", "setting": "[1]", "value": "substantially suppressed in a dose-dependent manner"}
    ]},
    {"molecule": "cholera toxin [reference compound]", "values": [
      {"measurement": "CD69 expression on NK cells, comparison with adjuvants", "setting": "[2]", "value": "did not"},
      {"measurement": "CD40, CD80 and CD86 expression in dendritic cells, comparison with adjuvants", "setting": "[3]", "value": "modest"}
    ]},
    {"molecule": "B1", "values": [
      {"measurement": "Proliferation (cpm)", "setting": "[4]; [9]", "value": "1,626 ± 406 cpm"},
      {"measurement": "Proliferation (cpm)", "setting": "[4]; [10]", "value": "9,968 ± 314 cpm"},
      {"measurement": "Proliferation (cpm)", "setting": "[4]; [11]", "value": "29,163 ± 2,693 cpm"}
    ]},
    {"molecule": "B2", "values": [
      {"measurement": "Proliferation (cpm)", "setting": "[4]; [9]", "value": "1,497 ± 199 cpm"},
      {"measurement": "Proliferation (cpm)", "setting": "[4]; [10]", "value": "3,683 ± 1,127 cpm"},
      {"measurement": "Proliferation (cpm)", "setting": "[4]; [11]", "value": "9,554 ± 482 cpm"},
      {"measurement": "production of IL-1β, TNF-α, IL-12 and IFN-γ by PBMC", "setting": "[5]", "value": "stimulate the production of IL-1β, TNF-α and IL-12"},
      {"measurement": "CD40 expression, fold increase in mean fluorescence intensity from control", "setting": "[6]", "value": 1.2, "unit": "fold"},
      {"measurement": "CD80 expression, fold increase in mean fluorescence intensity from control", "setting": "[6]", "value": 1.1, "unit": "fold"},
      {"measurement": "CD86 expression, fold increase in mean fluorescence intensity from control", "setting": "[6]", "value": 1.3, "unit": "fold"},
      {"measurement": "percentage of αβT cells expressing CD69", "setting": "[2]; PBMC from normal donors, 20 ug/ml, 24 hours, control 3.8", "value": 11.7, "unit": "%"},
      {"measurement": "percentage of NK cells expressing CD69", "setting": "[2]; PBMC from normal donors, 20 ug/ml, 24 hours, control 4.8", "value": 6.3, "unit": "%"},
      {"measurement": "percentage of γδT cells expressing CD69", "setting": "[2]; PBMC from normal donors, 20 ug/ml, 24 hours, control 6.2", "value": 4.9, "unit": "%"},
      {"measurement": "CD40, CD80 and CD86 expression on dendritic cells", "setting": "[3]; 20 ug/ml, 48 hours, T cell-depleted PBMC", "value": "highest levels of expression"},
      {"measurement": "CD40 expression, fold increase in mean fluorescence intensity from control", "setting": "[3]; [12]", "value": 5.8, "unit": "fold"},
      {"measurement": "CD80 expression, fold increase in mean fluorescence intensity from control", "setting": "[3]; [12]", "value": 3.0, "unit": "fold"},
      {"measurement": "CD86 expression, fold increase in mean fluorescence intensity from control", "setting": "[3]; [12]", "value": 3.1, "unit": "fold"},
      {"measurement": "CD40 expression, fold increase in mean fluorescence intensity from control", "setting": "[7]", "value": 1.6, "unit": "fold"},
      {"measurement": "CD80 expression, fold increase in mean fluorescence intensity from control", "setting": "[7]", "value": 1.2, "unit": "fold"},
      {"measurement": "CD86 expression, fold increase in mean fluorescence intensity from control", "setting": "[7]", "value": 1.0, "unit": "fold"}
    ]},
    {"molecule": "B3", "values": [
      {"measurement": "Proliferation (cpm)", "setting": "[4]; [9]", "value": "8,764 ± 256 cpm"},
      {"measurement": "Proliferation (cpm)", "setting": "[4]; [10]", "value": "27,529 ± 1,238 cpm"},
      {"measurement": "Proliferation (cpm)", "setting": "[4]; [11]", "value": "41,529 ± 1,919 cpm"},
      {"measurement": "IFNγ", "setting": "[8]; [10]", "value": "1.52 ± 0.24", "unit": "ng/mL"},
      {"measurement": "IFNγ", "setting": "[8]; Dose of GV protein used in vitro 10 μg/ml", "value": "8.44 ± 2.35", "unit": "ng/mL"},
      {"measurement": "IFNγ", "setting": "[8]; [11]", "value": "7.71 ± 0.26", "unit": "ng/mL"}
    ]}
  ]
}
